Results as given in article PMC2853136 (Nucleic Acids Research, 2010).

B1: GST-HuR (134–326) (domain or fragment, UniProt Q15717 134-326, looked up)
chain: NSRVLVDQTTGLSRGVAFIRFDKRSEAEEAITSFNGHKPPGSSEPITVKFAANPNQNKNVALLSQLYHSPARRFGGPVHHQAQRFRFSPMGVDHMSGLSGVNVPGNASSGWCIFIYNLGQDADEGILWQMFGPFGAVTNVKVIRDFNTNKCKGFGFVTMTNYEEAAMAIASLNGYRLGDKILQVSFKTNKSHK
B2: GST-HuR (183–326) (domain or fragment, UniProt Q15717 183-326, looked up)
chain: FAANPNQNKNVALLSQLYHSPARRFGGPVHHQAQRFRFSPMGVDHMSGLSGVNVPGNASSGWCIFIYNLGQDADEGILWQMFGPFGAVTNVKVIRDFNTNKCKGFGFVTMTNYEEAAMAIASLNGYRLGDKILQVSFKTNKSHK
B3: GST-HuR (Δ95-244) (natural protein, UniProt Q15717 1-326, looked up)
chain: MSNGYEDHMAEDCRGDIGRTNLIVNYLPQNMTQDELRSLFSSIGEVESAKLIRDKVAGHSLGYGFVNYVTAKDAERAINTLNGLRLQSKTIKVSCIFIYNLGQDADEGILWQMFGPFGAVTNVKVIRDFNTNKCKGFGFVTMTNYEEAAMAIASLNGYRLGDKILQVSFKTNKSHK
B4: GST-RNPC1a (natural protein, UniProt Q9H0Z9-1 1-239, looked up)
chain: MLLQPAPCAPSAGFPRPLAAPGAMHGSQKDTTFTKIFVGGLPYHTTDASLRKYFEGFGDIEEAVVITDRQTGKSRGYGFVTMADRAAAERACKDPNPIIDGRKANVNLAYLGAKPRSLQTGFAIGVQQLHPTLIQRTYGLTPHYIYPPAIVQPSVVIPAAPVPSLSSPYIEYTPASPAYAQYPPATYDQYPYAASPATAASFVGYSYPAAVPQALSAAAPAGTTFVQYQAPQLQPDRMQ
B5: His-tagged RNPC1a (recombinant) (natural protein, UniProt Q9H0Z9-1 1-239, looked up)
chain: B4 chain

Assays:
Test in all cases: pull-down
[1] = biological target: B5
[2] = biological target: His-tagged HuR (recombinant) (UniProt Q15717 1-326)
GST-HuR (1–326) = GST-HuR (1–326) (UniProt Q15717 1-326)

Binder | binding result [1] | other results
B1 | binds | –
B2 | binds | –
B3 | binds | –
B4 | – | binding result [2]: binds
B5 | – | binding result (GST-HuR (1–326)): binds
